Reference: article PMC9156947, “Identification of STAU1 as a regulator of HBV replication by TurboID-based proximity labeling” (iScience, 2022)

T1: C10-STAU1 (UniProt O95793 1-577)
T1 construct: also called wild type STAU1; source: HepG2, transfected, in cells; not shown: C10 tag (tripartite NanoLuc), N-terminal, kept
T1 sequence (looked up): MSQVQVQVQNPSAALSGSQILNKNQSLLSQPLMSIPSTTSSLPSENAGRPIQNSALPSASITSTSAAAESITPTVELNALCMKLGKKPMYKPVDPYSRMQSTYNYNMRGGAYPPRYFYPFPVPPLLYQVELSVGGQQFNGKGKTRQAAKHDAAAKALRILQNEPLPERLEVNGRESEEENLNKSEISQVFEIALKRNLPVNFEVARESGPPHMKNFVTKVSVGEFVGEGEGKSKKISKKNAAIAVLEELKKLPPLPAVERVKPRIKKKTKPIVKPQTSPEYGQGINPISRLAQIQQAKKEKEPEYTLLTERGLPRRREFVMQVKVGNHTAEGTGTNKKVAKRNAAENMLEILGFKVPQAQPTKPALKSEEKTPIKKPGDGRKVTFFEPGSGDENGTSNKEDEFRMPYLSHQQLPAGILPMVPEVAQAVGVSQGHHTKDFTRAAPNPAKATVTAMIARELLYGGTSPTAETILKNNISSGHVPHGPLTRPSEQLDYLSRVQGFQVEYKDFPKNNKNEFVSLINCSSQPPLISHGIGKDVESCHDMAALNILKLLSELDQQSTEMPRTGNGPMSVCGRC


How the values were obtained:
C10-STAU1 = biological target: T1, C10-STAU1; experiment: split reporter (BiFC, NanoBiT); tripartite Nanoluc luciferase: C10-tagged and N8-tagged proteins co-transfected with a plasmid expressing Nano1-7 into HepG2 cells; luciferase activity measured 48 h post-transfection; conditions: partners not purified
C10-DDB1 = biological target: T2, C10-DDB1 (UniProt Q16531 1-1140); experiment: as above; conditions: partners not purified
T2 construct: also called wild type DDB1; source: HepG2, transfected, in cells; not shown: C10 tag (tripartite NanoLuc), N-terminal, kept
T2 sequence (Q16531 whole entry): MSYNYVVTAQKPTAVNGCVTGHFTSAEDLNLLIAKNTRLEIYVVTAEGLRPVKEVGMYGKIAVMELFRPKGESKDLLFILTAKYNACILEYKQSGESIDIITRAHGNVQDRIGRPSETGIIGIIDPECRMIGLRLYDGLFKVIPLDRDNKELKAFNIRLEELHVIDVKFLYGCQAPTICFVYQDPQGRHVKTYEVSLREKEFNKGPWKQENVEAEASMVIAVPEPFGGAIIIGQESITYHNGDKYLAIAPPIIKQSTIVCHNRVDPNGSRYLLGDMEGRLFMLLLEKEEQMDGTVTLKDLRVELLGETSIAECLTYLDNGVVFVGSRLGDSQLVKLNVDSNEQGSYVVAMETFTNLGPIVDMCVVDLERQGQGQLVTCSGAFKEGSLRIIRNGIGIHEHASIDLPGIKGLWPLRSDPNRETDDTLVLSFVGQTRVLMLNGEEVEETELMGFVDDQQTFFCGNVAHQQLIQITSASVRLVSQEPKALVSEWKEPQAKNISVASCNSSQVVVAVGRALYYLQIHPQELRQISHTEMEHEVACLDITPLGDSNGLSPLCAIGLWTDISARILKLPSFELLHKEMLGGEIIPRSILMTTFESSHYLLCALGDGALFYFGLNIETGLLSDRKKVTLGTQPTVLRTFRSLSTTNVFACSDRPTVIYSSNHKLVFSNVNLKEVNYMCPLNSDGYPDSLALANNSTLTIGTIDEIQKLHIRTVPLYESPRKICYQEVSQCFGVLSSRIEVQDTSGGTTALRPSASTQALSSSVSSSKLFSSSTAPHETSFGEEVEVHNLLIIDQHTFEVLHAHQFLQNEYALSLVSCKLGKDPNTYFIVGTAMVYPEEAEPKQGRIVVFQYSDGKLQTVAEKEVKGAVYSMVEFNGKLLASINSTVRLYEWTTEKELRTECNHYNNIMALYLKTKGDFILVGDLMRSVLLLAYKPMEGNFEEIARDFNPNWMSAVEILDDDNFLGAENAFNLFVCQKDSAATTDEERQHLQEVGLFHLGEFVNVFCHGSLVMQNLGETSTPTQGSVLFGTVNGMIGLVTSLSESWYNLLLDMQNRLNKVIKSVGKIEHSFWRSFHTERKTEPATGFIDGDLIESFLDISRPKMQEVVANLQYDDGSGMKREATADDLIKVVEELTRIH

| Binder | fold luminescence over the control (C10-STAU1) [fold] | fold luminescence over the controls (C10-STAU1) [fold] | fold luminescence over the controls (C10-DDB1) [fold] |
| --- | --- | --- | --- |
| N8-TAF10 (natural protein, source: transfected cells (tripartite NanoLuc system), in cells) not shown | > 20 | – | – |
| N8-HBx (natural protein, also called X protein; wild type HBx; source: HepG2, transfected, in cells; not shown: N8 tag (tripartite NanoLuc), N-terminal, kept) MAARLCCQLDPARDVLCLRPVGAESRGRPFSGSLGTLSSPSPSAVPTDHGAHLSLRGLPVCAFSSAGPCALRFTSARRMETTVNAHQILPKVLHKRTLGLSAMSTTDLEAYFKDCLFKDWEELGEEIRLKVFVLGGCRHKLVCAPAPCNFFTSA | – | 28 | ~200 |
